Laboratory results from publication PMC8591604 (2021).
[ ]: non-standard residue; d: D form. pY = N[C@@H](Cc1ccc(OP(=O)(O)O)cc1)C(=O)O

Legend:
[1] = target: T1, N-SH2 domain of SHP2 (residues 2–111) (human, UniProt Q06124 2-111); test: FP
T1 chain: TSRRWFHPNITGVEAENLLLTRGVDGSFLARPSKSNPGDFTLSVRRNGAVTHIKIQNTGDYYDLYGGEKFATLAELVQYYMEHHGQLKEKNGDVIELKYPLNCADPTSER

[2] = target: T1, N-SH2 domain of SHP2 (residues 2–111); test: FP
[3] = target: T1, N-SH2 domain of SHP2 (residues 2–111); test: FP; displacement of CF-P9W5
[4] = target: T1, N-SH2 domain of SHP2 (residues 2–111); test: FP; displacement of CF-P9W5

B1: P8F5, P8 analogue with F at position +5 (peptide)
chain: Ac-LN[pY]IDLDF-NH2
SMILES: CC[C@H](C)[C@H](NC(=O)[C@H](Cc1ccc(OP(=O)(O)O)cc1)NC(=O)[C@H](CC(N)=O)NC(=O)[C@H](CC(C)C)NC(C)=O)C(=O)N[C@@H](CC(=O)O)C(=O)N[C@@H](CC(C)C)C(=O)N[C@@H](CC(=O)O)C(=O)N[C@@H](Cc1ccccc1)C(N)=O
With B1 the EC50 [1] was 16 nM and the Kd [2] was 7 nM.

Ac-LN[pY]IDLDW-NH2 [P8W5, P8 analogue with W at position +5] was tested, and the EC50 [1] was 5.4 nM.

B2: P8E4W5, P8 analogue with E at position +4 and W at position +5 (peptide)
chain: Ac-LN[pY]IDLEW-NH2
SMILES: CC[C@H](C)[C@H](NC(=O)[C@H](Cc1ccc(OP(=O)(O)O)cc1)NC(=O)[C@H](CC(N)=O)NC(=O)[C@H](CC(C)C)NC(C)=O)C(=O)N[C@@H](CC(=O)O)C(=O)N[C@@H](CC(C)C)C(=O)N[C@@H](CCC(=O)O)C(=O)N[C@@H](Cc1c[nH]c2ccccc12)C(N)=O
Binder B2 has an EC50 [1] of 11 nM and a Kd [2] of 4 nM.

B3: P8, unlabeled IRS-1 pY1172 peptide, residues −2 to +5 (peptide)
peptide: Ac-LN[pY]IDLDL-NH2
SMILES: CC[C@H](C)[C@H](NC(=O)[C@H](Cc1ccc(OP(=O)(O)O)cc1)NC(=O)[C@H](CC(N)=O)NC(=O)[C@H](CC(C)C)NC(C)=O)C(=O)N[C@@H](CC(=O)O)C(=O)N[C@@H](CC(C)C)C(=O)N[C@@H](CC(=O)O)C(=O)N[C@@H](CC(C)C)C(N)=O
Binder B3 has an EC50 [3] of 47 nM and a Kd [4] of 22 nM.
